Experimental findings from paper PMC5442325 are described below.

The target of experiment [1] is Deinococcus radiodurans RecA K83R mutant protein (Deinococcus radiodurans) (UniProt P42443).
In experiment [2] the target is Deinococcus radiodurans RecA protein (wild type) (Deinococcus radiodurans) (UniProt P42443).

B1: Deinococcus radiodurans RecN protein (wild type) (natural protein)
chain: MTRKARTPKAAPVPEAVAVVEPPPPDAAPTGPRLSRLEIRNLATITQLELELGGGFCAFTGETGAGKSIIVDALGLLLGGRANHDLIRSGEKELLVTGFWGDGDESEADSASRRLSSAGRGAARLSGEVVSVRELQEWAQGRLTIHWQHSAVSLLSPANQRGLLDRRVTKEAQAYAAAHAAWREAVSRLERLQASQRERARQIDLLAFQVQEISEVSPDPGEEEGLNTELSRLSNLHTIAQAAAGGVELLSDGDLNAAGLIGEAVRALNAGAKYDETVMQLQNELRAALESVQAIAGELRDVAEGSAADPEALDRVEARLSALSKLKNKYGPTLEDVVEFGAQAAEELAGLEEDERDAGSLQADVDALHAELLKVGQALDAAREREAEPLVDSLLAVIRELGMPHARMEFALSALAEPAAYGLSDVLLRFSANPGEELGPLSDVASGGELSRVMLAVSTVLGADTPSVVFDEVDAGIGGAAAIAVAEQLSRLADTRQVLVVTHLAQIAARAHHHYKVEKQVEDGRTVSHVRLLTGDERLEEIARMLSGNTSEAALEHARELLAG
Consider B1, for which, in experiment [1], the steady-state RecN ATP hydrolysis rate, order of addition RecA K83R+DNA then RecN (reaction 5; 2 μM RecN, 2 μM RecA K83R, 50 μM duplex DNA, buffer N) came to 56.3 µM/min; the steady-state RecN ATP hydrolysis rate, order of addition RecN+DNA then RecA K83R (reaction 3; 2 μM RecN, 2 μM RecA K83R, 50 μM duplex DNA, buffer N) worked out at 53.4 µM/min; the steady-state RecN ATP hydrolysis rate, order of addition RecN+RecA K83R then DNA (reaction 4; 2 μM RecN, 2 μM RecA K83R, 50 μM duplex DNA, buffer N) was 47.5 µM/min. Also, the nicked circular duplex product of RecA-mediated DNA three-strand exchange under dilute conditions (0.4 μM RecA, 500 nM RecN, 45 min) in experiment [2] was greater than 3 fold.
